This note sets out measurements from US20250387465A1.

Experiment [1] concerns the target ferritin-PreF fusion protein RSV-PreF-C-NP (respiratory syncytial virus (Pre-F part); species of the ferritin not stated). Put plainly: ELISA, fusion protein coated, F protein antibody 1:1500 as primary; protein kept 1 h at 70 C, pH 7.4; against untreated protein; mean of 10- to 10000-fold dilutions. Background: An ELISA detects its analyte on a solid surface through an enzyme-linked reagent.

For experiment [2] the target is unchanged. Put plainly: ELISA, fusion protein coated, F protein antibody 1:1500 as primary; protein kept 1 h at pH 7.4, 25 C (untreated reference); mean of 10- to 10000-fold dilutions.
The target is the same in experiment [3]. Put plainly: ELISA, fusion protein coated, F protein antibody 1:1500 as primary; protein kept 1 h at pH 10, 25 C; against untreated protein; mean of 10- to 10000-fold dilutions.
Experiment [4] concerns the target ferritin-PreF fusion protein RSV-PreF-F-NP (respiratory syncytial virus (Pre-F part); species of the ferritin not stated). Put plainly: ELISA with F protein antibody after 1 h at pH 3.8, pH 10, 50 C or 70 C.
Experiment [5] has as its target ferritin-PreF fusion protein RSV-PreF-E-NP (respiratory syncytial virus (Pre-F part); species of the ferritin not stated). The description is as above.
The target in experiment [6] is ferritin-PreF fusion protein RSV-PreF-A-NP (respiratory syncytial virus (Pre-F part); species of the ferritin not stated). The description is as above.
Experiment [7] addresses ferritin-PreF fusion protein RSV-PreF-B-NP (respiratory syncytial virus (Pre-F part); species of the ferritin not stated). The experiment is described as above.
Experiment [8] has as its target ferritin-PreF fusion protein RSV-PreF-C-NP (respiratory syncytial virus (Pre-F part); species of the ferritin not stated). The description is as above.
In experiment [9] the target is ferritin-PreF fusion protein RSV-PreF-G-NP (respiratory syncytial virus (Pre-F part); species of the ferritin not stated). The description is as above.
For experiment [10], the target named is ferritin-PreF fusion protein RSV-PreF-H-NP (respiratory syncytial virus (Pre-F part); species of the ferritin not stated). The description is as above.
Experiment [11] has as its target ferritin-PreF fusion protein RSV-PreF-D-NP (respiratory syncytial virus (Pre-F part); species of the ferritin not stated). The experiment is described as above.
Experiment [12] concerns the target ferritin-PreF fusion protein RSV-PreF-C-NP (respiratory syncytial virus (Pre-F part); species of the ferritin not stated). Nature of the experiment: ELISA, fusion protein coated, F protein antibody 1:1500 as primary; protein kept 1 h at 50 C, pH 7.4; against untreated protein; mean of 10- to 10000-fold dilutions.
For experiment [13] the target is unchanged. Nature of the experiment: ELISA, fusion protein coated, F protein antibody 1:1500 as primary; protein kept 1 h at pH 3.8, 25 C; against untreated protein; mean of 10- to 10000-fold dilutions.

For the substance “F protein antibody (PujianBiotech (Wuhan), Cat #62814)”, the Percentage of ELISA Signal Intensity Retained After Physical Stress Challenges was found to be 77.1% in [1]; 100% in [2]; 83.6% in experiment [3]; 91.2% in experiment [12]; 77.3% in [13]. The antigen-binding activity retained against the original untreated protein in experiment [4], in experiment [5], in [6], in experiment [7], in experiment [8] and in experiment [9] was above 75% each time. For the same substance, the antigen-binding activity retained against the original untreated protein in experiment [10] and in experiment [11] was above 75% each time.
